The chains are these.
T1: FcγRIIa R (extracellular domain, C-terminal His tag) (human, UniProt P12318 34-217)
T1 construct: extracellular domain; also called FcgRIIa R type; 2aR; not shown: His tag attached to the C terminus
T1 sequence (looked up): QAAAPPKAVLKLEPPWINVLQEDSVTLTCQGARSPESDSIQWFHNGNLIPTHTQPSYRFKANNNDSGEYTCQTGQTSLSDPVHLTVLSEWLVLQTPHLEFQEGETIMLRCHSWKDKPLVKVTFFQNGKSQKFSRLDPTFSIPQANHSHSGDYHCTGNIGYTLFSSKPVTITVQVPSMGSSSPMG

T2: FcγRIIb (extracellular domain, C-terminal His tag) (human, UniProt P31994 43-217)
T2 construct: extracellular domain; also called FcgRIIb; 2b; not shown: His tag attached to the C terminus
T2 sequence (looked up): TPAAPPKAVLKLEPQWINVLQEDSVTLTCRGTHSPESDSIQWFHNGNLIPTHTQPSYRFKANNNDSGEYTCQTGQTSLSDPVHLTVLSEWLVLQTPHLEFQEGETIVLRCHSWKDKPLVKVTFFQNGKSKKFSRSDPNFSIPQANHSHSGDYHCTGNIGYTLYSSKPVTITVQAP

T3: FcγRIIb extracellular domain with C-terminal His tag (human, UniProt P31994 43-217)
T3 construct: extracellular domain; Expressed in FreeStyle293 cells; used as analyte in Biacore; also called FcgRIIb; 2b; not shown: C-terminal His tag
T3 sequence (looked up): T2 sequence (looked up)

B1: GpH7-A5/GpH7-B3 variant S337_02A/GpL16-k0 (antibody, human IgG1, kappa)
heavy 1: not shown
heavy 2: not shown
light: DIVMTQSPLSLPVTPGEPASISCQASESLVHSNRNTYLHWYLQKPGQSPQLLIYKVSNRFSGVPDRFSGSGSGTDFTLKISRVEAEDVGVYYCSQNTHVPPTFGQGTKVEIERTVAAPSVFIFPPSDEQLKSGTASVVCLLNNFYPREAKVQWKVDNALQSGNSQESVTEQDSKDSTYSLSSTLTLSKADYEKHKVYACEVTHQGLSSPVTKSFNRGEC
notes: Heterodimerized anti-glypican-3 IgG1; alteration in only one H chain (GpH7-B3 side); also called He Ab
B2: GpH7-A5/GpH7-B3 variant T335_12R/GpL16-k0 (antibody, human IgG1, kappa)
heavy 1: not shown
heavy 2: not shown
light: B1 light
notes: as for B1
B3: GpH7-A5/GpH7-B3 variant S337_19Q/GpL16-k0 (antibody, human IgG1, kappa)
heavy 1: not shown
heavy 2: not shown
light: B1 light
notes: as for B1
B4: GpH7-A5/GpH7-B3 variant E333_09D/GpL16-k0 (antibody, human IgG1, kappa)
heavy 1: not shown
heavy 2: not shown
light: B1 light
notes: as for B1
B5: GpH7-A5/GpH7-B3 variant E333_07I/GpL16-k0 (antibody, human IgG1, kappa)
heavy 1: not shown
heavy 2: not shown
light: B1 light
notes: as for B1
B6: GpH7-A5/GpH7-B3 variant S337_06M/GpL16-k0 (antibody, human IgG1, kappa)
heavy 1: not shown
heavy 2: not shown
light: B1 light
notes: as for B1
B7: GpH7-A5/GpH7-B3 variant T335_06M/GpL16-k0 (antibody, human IgG1, kappa)
heavy 1: not shown
heavy 2: not shown
light: B1 light
notes: as for B1
B8: GpH7-A5/GpH7-B3 variant T335_05P/GpL16-k0 (antibody, human IgG1, kappa)
heavy 1: not shown
heavy 2: not shown
light: B1 light
notes: as for B1
B9: GpH7-A5/GpH7-B3 variant E333_15Y/GpL16-k0 (antibody, human IgG1, kappa)
heavy 1: not shown
heavy 2: not shown
light: B1 light
notes: as for B1
B10: GpH7-A5/GpH7-B3 variant T335_01G/GpL16-k0 (antibody, human IgG1, kappa)
heavy 1: not shown
heavy 2: not shown
light: B1 light
notes: as for B1
B11: GpH7-A5/GpH7-B3 variant S337_11K/GpL16-k0 (antibody, human IgG1, kappa)
heavy 1: not shown
heavy 2: not shown
light: B1 light
notes: as for B1
B12: GpH7-A5/GpH7-B3 variant I336_18N/GpL16-k0 (antibody, human IgG1, kappa)
heavy 1: not shown
heavy 2: not shown
light: B1 light
notes: as for B1
B13: GpH7-A5/GpH7-B3 variant E333_08L/GpL16-k0 (antibody, human IgG1, kappa)
heavy 1: not shown
heavy 2: not shown
light: B1 light
notes: as for B1
B14: GpH7-A5/GpH7-B3 variant S337_03V/GpL16-k0 (antibody, human IgG1, kappa)
heavy 1: not shown
heavy 2: not shown
light: B1 light
notes: as for B1
B15: GpH7-A5/GpH7-B3 variant S337_04F/GpL16-k0 (antibody, human IgG1, kappa)
heavy 1: not shown
heavy 2: not shown
light: B1 light
notes: as for B1
B16: GpH7-A5/GpH7-B3 variant S337_12R/GpL16-k0 (antibody, human IgG1, kappa)
heavy 1: not shown
heavy 2: not shown
light: B1 light
notes: as for B1
B17: GpH7-A5/GpH7-B3 variant T335_02A/GpL16-k0 (antibody, human IgG1, kappa)
heavy 1: not shown
heavy 2: not shown
light: B1 light
notes: as for B1
B18: GpH7-A5/GpH7-B3 variant S337_09D/GpL16-k0 (He Ab) (antibody, human IgG1, kappa)
heavy 1: not shown
heavy 2: not shown
light: B1 light
notes: Substitution in one H chain only; position in EU numbering; also called S337D heterodimerized antibody
B19: GpH7-A5/GpH7-B3 variant T335_09D/GpL16-k0 (He Ab) (antibody, human IgG1, kappa)
heavy 1: not shown
heavy 2: not shown
light: B1 light
notes: Substitution in one H chain only; position in EU numbering; also called T335D heterodimerized antibody

One test concerns the target T1, FcγRIIa R (extracellular domain, …). The test is described as follows: SPR (Biacore), antibody captured on antigen-peptide chip, FcγR as analyte; relative binding amount. How it is done: (§1) The heterodimerized antibodies He Abs in which one of the H chains was introduced with an alteration were assayed for their binding activities to each activating FcγR and inhibitory FcγR according to the method described in Example 4. […] The activating FcγRs in FIGS. 26, 27, 28, and 29 are FcγRIa, FcγRIIa (R), FcγRIIa (H), and FcγRIIIa, respectively.
(§2) Analysis of interaction between objective antibody and the FcγR was carried out using Biacore T100 (GE Healthcare). HBS-EP+ (GE Healthcare) was used as the running buffer, and the measurement temperature was set to 25° C. Chips produced by immobilizing the antigen peptide by the amine coupling method to a Series S Sencor Chip CM5 (GE Healthcare), or alternatively, chips produced by allowing preliminarily biotinylated antigen peptides to interact with and immobilize onto a Series S Sensor Chip SA (certified) (GE Healthcare) were used. Antibodies of interest were captured onto an antigen peptide-immobilized chip, and allowed to interact to each FcγR diluted with running buffer. To regenerate and repeatedly use the chip, the antibodies captured on the chip were washed off by reacting 10 mM glycine-HCl, pH 1.5.
(SPR reads the build-up and loss of mass on a sensor chip optically.)
Take B1: the He/Con_2aR is 105 % of control (GpH7-A5/GpH7-B3/GpL16-k0 = 100).

On to B2, for which the He/Con_2aR was 100 % of control (GpH7-A5/GpH7-B3/GpL16-k0 = 100). Consider B3, for which the He/Con_2aR is 106 % of control (GpH7-A5/GpH7-B3/GpL16-k0 = 100). Turning to B4, the He/Con_2aR was 103 % of control (GpH7-A5/GpH7-B3/GpL16-k0 = 100). As for B5, the He/Con_2aR was 104 % of control (GpH7-A5/GpH7-B3/GpL16-k0 = 100). Still for that read-out and setting: the figure for B6 is 105 % of control (GpH7-A5/GpH7-B3/GpL16-k0 = 100). Same read-out and setting: the figure for B7 is 105 % of control (GpH7-A5/GpH7-B3/GpL16-k0 = 100); for B8 it is 104 % of control (GpH7-A5/GpH7-B3/GpL16-k0 = 100). B9: the He/Con_2aR was 101 % of control (GpH7-A5/GpH7-B3/GpL16-k0 = 100). The same measure, in the same setting: the figure for B10 is 104 % of control (GpH7-A5/GpH7-B3/GpL16-k0 = 100); for B11 it is 103 % of control (GpH7-A5/GpH7-B3/GpL16-k0 = 100); for B12 it is 104 % of control (GpH7-A5/GpH7-B3/GpL16-k0 = 100). Regarding B13, the He/Con_2aR is 103 % of control (GpH7-A5/GpH7-B3/GpL16-k0 = 100).

Turning to B14, the He/Con_2aR is 106 % of control (GpH7-A5/GpH7-B3/GpL16-k0 = 100).

On to B15, for which the He/Con_2aR is 105 % of control (GpH7-A5/GpH7-B3/GpL16-k0 = 100). For B16, the He/Con_2aR is 107 % of control (GpH7-A5/GpH7-B3/GpL16-k0 = 100). Turning to B17, the He/Con_2aR is 102 % of control (GpH7-A5/GpH7-B3/GpL16-k0 = 100).

Another test addresses T2, FcγRIIb (extracellular domain, …). The description is as above. How it is done:
as §1, §2
With B1, the He/Con_2b is 97.2 % of control (GpH7-A5/GpH7-B3/GpL16-k0 = 100). Take B2: the He/Con_2b was 91.9 % of control (GpH7-A5/GpH7-B3/GpL16-k0 = 100). As for B3, the He/Con_2b was 99.7 % of control (GpH7-A5/GpH7-B3/GpL16-k0 = 100). The same measure, in the same setting: the figure for B4 is 94.3 % of control (GpH7-A5/GpH7-B3/GpL16-k0 = 100); for B5 it is 96.2 % of control (GpH7-A5/GpH7-B3/GpL16-k0 = 100); for B6 it is 96.7 % of control (GpH7-A5/GpH7-B3/GpL16-k0 = 100). The same measure, in the same setting: the figure for B7 is 99.4 % of control (GpH7-A5/GpH7-B3/GpL16-k0 = 100); for B8 it is 99.9 % of control (GpH7-A5/GpH7-B3/GpL16-k0 = 100); for B9 it is 94.4 % of control (GpH7-A5/GpH7-B3/GpL16-k0 = 100). Take B10: the He/Con_2b was 96.7 % of control (GpH7-A5/GpH7-B3/GpL16-k0 = 100). For B11, the He/Con_2b was 94.3 % of control (GpH7-A5/GpH7-B3/GpL16-k0 = 100). Take B12: the He/Con_2b was 97.6 % of control (GpH7-A5/GpH7-B3/GpL16-k0 = 100). Consider B13, for which the He/Con_2b is 95 % of control (GpH7-A5/GpH7-B3/GpL16-k0 = 100).

In the case of B14, the He/Con_2b is 98.9 % of control (GpH7-A5/GpH7-B3/GpL16-k0 = 100). In the case of B15, the He/Con_2b was 97.8 % of control (GpH7-A5/GpH7-B3/GpL16-k0 = 100).

With B16, the He/Con_2b was 99.5 % of control (GpH7-A5/GpH7-B3/GpL16-k0 = 100). Consider B17, for which the He/Con_2b was 94 % of control (GpH7-A5/GpH7-B3/GpL16-k0 = 100).

A further test concerns the target T3, FcγRIIb extracellular domain with …. The experiment in a line: SPR (Biacore), antibody captured on antigen-peptide chip, FcgRIIb as analyte; binding relative to GpH7-A5/GpH7-B3/GpL16-k0 (HeCon Ab) = 100.
With B18, the He/Con_2b was 114 % of control. As for B19, the He/Con_2b is 108 % of control.

The values are drawn from patent US20180155451A1 (published 2018).
